Measurements reported in US20260209385A1 (ANALYTICAL BIOSCIENCES SHANGHAI, published 2026).

Key:
[1] = biological target: T1, hCD3 antigen on Jurkat clone E6-1 cells (human); test: flow cytometry on Jurkat cells, FITC anti-human IgG Fc, median fluorescence, 4-parameter fit
T1 construct: whole, on cells; also called human CD3; hCD3 (Jurkat cell)
Protocol: (§1) Serially diluted antibodies or bispecifics were then added, with a maximum final concentration of 1000 nM and 3-fold dilution using PBS buffer. After incubating on ice for 30 mins, the plates were washed two times with FACS buffer (PBS buffer with 0.5 mg/ml BSA, 0.02% tween) and incubated with FITC anti-human IgG antibody (Goat Anti Human (IgG Fc) secondary antibody FITC, Abcam #ab97224, 1:1000) on ice for 30 mins, followed by two times wash with FACS buffer. […] Data were analyzed with GraphPad Prism. Median fluorescent intensity was plotted versus antibody concentration and EC50 was calculated by fitting the curve with the function of log (agonist) vs. response—Variable slope (four parameters).

[2] = biological target: T2, hCCR8 antigen on hCCR8-transfected 293T cells (human, UniProt P51685 1-355); test: flow cytometry on hCCR8-transfected 293T cells, FITC anti-human IgG Fc, median fluorescence, 4-parameter fit
T2 construct: whole, on cells; also called human CCR8
T2 sequence (P51685 whole entry): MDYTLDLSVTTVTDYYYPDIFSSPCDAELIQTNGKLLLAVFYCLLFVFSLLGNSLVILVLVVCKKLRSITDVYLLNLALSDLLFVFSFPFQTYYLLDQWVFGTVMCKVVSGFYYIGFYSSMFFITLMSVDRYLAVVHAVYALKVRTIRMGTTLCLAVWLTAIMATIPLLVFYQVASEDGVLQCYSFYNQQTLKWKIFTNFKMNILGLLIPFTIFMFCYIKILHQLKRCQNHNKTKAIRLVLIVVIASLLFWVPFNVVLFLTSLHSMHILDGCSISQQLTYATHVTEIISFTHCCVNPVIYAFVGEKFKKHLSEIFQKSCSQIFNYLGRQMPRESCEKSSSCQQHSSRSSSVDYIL
Protocol: as §1

T1 sequence (P07766 23-207, chain 1 of 4): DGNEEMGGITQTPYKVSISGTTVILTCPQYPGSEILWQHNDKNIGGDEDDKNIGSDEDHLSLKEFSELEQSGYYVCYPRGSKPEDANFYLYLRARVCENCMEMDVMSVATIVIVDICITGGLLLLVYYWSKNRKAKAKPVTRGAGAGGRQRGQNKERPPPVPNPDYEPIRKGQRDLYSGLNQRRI
T1 sequence (P09693 23-182, chain 2 of 4, further chain): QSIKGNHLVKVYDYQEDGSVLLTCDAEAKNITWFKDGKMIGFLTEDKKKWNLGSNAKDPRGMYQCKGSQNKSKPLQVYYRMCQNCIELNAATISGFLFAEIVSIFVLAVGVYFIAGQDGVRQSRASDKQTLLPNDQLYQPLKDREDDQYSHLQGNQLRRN
T1 sequence (P04234 22-171, chain 3 of 4, further chain): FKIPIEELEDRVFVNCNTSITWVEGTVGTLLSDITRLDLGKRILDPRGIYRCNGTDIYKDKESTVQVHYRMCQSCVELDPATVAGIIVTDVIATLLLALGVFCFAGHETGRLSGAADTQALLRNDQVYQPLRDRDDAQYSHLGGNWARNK
T1 sequence (P20963 22-164, chain 4 of 4, further chain): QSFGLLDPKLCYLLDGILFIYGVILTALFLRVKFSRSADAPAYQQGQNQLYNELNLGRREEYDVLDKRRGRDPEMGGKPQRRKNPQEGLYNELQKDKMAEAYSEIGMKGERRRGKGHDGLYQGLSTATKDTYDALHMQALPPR

EC50 [1] [nM]	EC50 [2] [nM]	Binder
2.57	2.9	ABC752 (ABC752_hCCR8/hCD3_673, anti-hCCR8 x anti-hCD3 BsAb in ABC673 format) (bispecific antibody, human IgG1, kappa, N297A) heavy 1: EVQLVESGGGLVQPGGSLRLSCAASGFPFNTFAMNWVRQAPGKGLEWLARIRSKSNNYATYYADSVKDRFTISRDNAKRSLYLQMNSLRAEDTAVYYCVRGKENNYGYAMDYWGQGTTVTVSSASTKGQVKPEAWLSHCPSPGPGHLQLVCHVSGFYPKPVWVMWMRGEQEQQGTQRSEILPSADGTWYLRATLEVAAGEAADLSCRVKHSSLEGQDIVLYWEGSDKTHTCPPCPAPELLGGPSVFLFPPKPKDTLMISRTPEVTCVVVDVSHEDPEVKFNWYVDGVEVHNAKTKPREEQYASTYRVVSVLTVLHQDWLNGKEYKCKVSNKALPAPIEKTISKAKGQPREPQVCTLPPSREEMTKNQVSLSCAVKGFYPSDIAVEWESNGQPENNYKTTPPVLDSDGSFFLVSKLTVDKSRWQQGNVFSCSVMHEALHNHYTQKSLSLSPGK light 1: not shown heavy 2: not shown light 2: not shown
–	0.34	ABC138 (anti-hCCR8 parental antibody) (antibody, human IgG1, kappa, V domains shown) VH: EVQLVESGGGLVQPGGSLRLSCAASGFPFNTFAMNWVRQAPGKGLEWLARIRSKSNNYATYYADSVKDRFTISRDNAKRSLYLQMNSLRAEDTAVYYCVRGKENNYGYAMDYWGQGTTVTVSS VL: DIVMTQSPLSLPVTPGEPASISCRSSKSLLHSNANTYLYWFLQKPGQSPQLLIYRMSNLASGVPDRFSGSGSGTDFTLKISRVEAEDVGVYYCMQHVEYPFTFGGGTKLEIKR
2.09	2.14	ABC753 (ABC753_hCCR8/hCD3_675, anti-hCCR8 x anti-hCD3 BsAb in ABC675 format) (bispecific antibody, human IgG1, kappa, N297A) heavy 1: EVQLVESGGGLVQPGGSLRLSCAASGFPFNTFAMNWVRQAPGKGLEWLARIRSKSNNYATYYADSVKDRFTISRDNAKRSLYLQMNSLRAEDTAVYYCVRGKENNYGYAMDYWGQGTTVTVSSASTKGQVKPEAWLSSCPSPGPGRLQLVCHVSGFYPKPVWVMWMRGEQEQQGTQLSEILPNANWTWYLRATLDVADGEAAGLSCRVKHSSLEGQDIILYWRGSGDKTHTCPPCPAPELLGGPSVFLFPPKPKDTLMISRTPEVTCVVVDVSHEDPEVKFNWYVDGVEVHNAKTKPREEQYASTYRVVSVLTVLHQDWLNGKEYKCKVSNKALPAPIEKTISKAKGQPREPQVCTLPPSREEMTKNQVSLSCAVKGFYPSDIAVEWESNGQPENNYKTTPPVLDSDGSFFLVSKLTVDKSRWQQGNVFSCSVMHEALHNHYTQKSLSLSPGK light 1: not shown heavy 2: not shown light 2: not shown
